B1: PheDH (Halalkalibacterium halodurans C-125) (protein)
chain: MLTKTPTVTSTLDIFTEMAEHEQVLFCHDPSSGLRAIIAIHDTTLGPALGGCRMYPYQTTEDALRDVLRLSKGMTQKCAAADVDFGGGKAVIIGDPAKDKSANLFRAFGQFVESLNGRFYTGTDMGTTMEDFVHALKETNGIVGIPKEYGGSGDSSVPTAKGVINSLKAISQVVLKDKQFSGRTYAIQGLGKVGFKVAEELLKEGNDLYVSDLQESLPLRLQQLGQRLGRHVEILHGDEIYEAAADVFVPCAQGAILNDATIARLKVKAIAGAANNQLEAERHGQMLHDQGIWFAPDYIVNSGGLIQVADELYGSNEKRVLSKTNAIYDTILEIFHQAERHHITTLQAANQLCERRIRERARRNNFFVNRIRPKWNLRK
B2: PheDH (Halalkalibacterium halodurans C-125; N276L) (protein)
chain: MLTKTPTVTSTLDIFTEMAEHEQVLFCHDPSSGLRAIIAIHDTTLGPALGGCRMYPYQTTEDALRDVLRLSKGMTQKCAAADVDFGGGKAVIIGDPAKDKSANLFRAFGQFVESLNGRFYTGTDMGTTMEDFVHALKETNGIVGIPKEYGGSGDSSVPTAKGVINSLKAISQVVLKDKQFSGRTYAIQGLGKVGFKVAEELLKEGNDLYVSDLQESLPLRLQQLGQRLGRHVEILHGDEIYEAAADVFVPCAQGAILNDATIARLKVKAIAGAANLQLEAERHGQMLHDQGIWFAPDYIVNSGGLIQVADELYGSNEKRVLSKTNAIYDTILEIFHQAERHHITTLQAANQLCERRIRERARRNNFFVNRIRPKWNLRK
B3: PheDH (Halalkalibacterium halodurans C-125; E113D/N276L) (protein)
chain: MLTKTPTVTSTLDIFTEMAEHEQVLFCHDPSSGLRAIIAIHDTTLGPALGGCRMYPYQTTEDALRDVLRLSKGMTQKCAAADVDFGGGKAVIIGDPAKDKSANLFRAFGQFVDSLNGRFYTGTDMGTTMEDFVHALKETNGIVGIPKEYGGSGDSSVPTAKGVINSLKAISQVVLKDKQFSGRTYAIQGLGKVGFKVAEELLKEGNDLYVSDLQESLPLRLQQLGQRLGRHVEILHGDEIYEAAADVFVPCAQGAILNDATIARLKVKAIAGAANLQLEAERHGQMLHDQGIWFAPDYIVNSGGLIQVADELYGSNEKRVLSKTNAIYDTILEIFHQAERHHITTLQAANQLCERRIRERARRNNFFVNRIRPKWNLRK
B4: PheDH (Halalkalibacterium halodurans C-125; E113D) (protein)
chain: MLTKTPTVTSTLDIFTEMAEHEQVLFCHDPSSGLRAIIAIHDTTLGPALGGCRMYPYQTTEDALRDVLRLSKGMTQKCAAADVDFGGGKAVIIGDPAKDKSANLFRAFGQFVDSLNGRFYTGTDMGTTMEDFVHALKETNGIVGIPKEYGGSGDSSVPTAKGVINSLKAISQVVLKDKQFSGRTYAIQGLGKVGFKVAEELLKEGNDLYVSDLQESLPLRLQQLGQRLGRHVEILHGDEIYEAAADVFVPCAQGAILNDATIARLKVKAIAGAANNQLEAERHGQMLHDQGIWFAPDYIVNSGGLIQVADELYGSNEKRVLSKTNAIYDTILEIFHQAERHHITTLQAANQLCERRIRERARRNNFFVNRIRPKWNLRK

Legend:
purified protein [1] = substrate: O=C(O)C(=O)Cc1ccccc1; assay: purified protein; assay type: biochemical, Halalkalibacterium halodurans; conditions: reductive amination, 500 mM ammonia, 100 microM NADH, glycine-KCl-KOH pH 10.4, 25°C
purified protein [2] = substrate: N[C@@H](Cc1ccccc1)C(=O)O; assay: purified protein; assay type: biochemical, Halalkalibacterium halodurans; conditions: oxidative deamination, 2 mM NAD+, 50 mM glycine-KCl-KOH pH 10.4, 25°C

Protein	Km (purified protein [1]) [mM]	kcat (purified protein [1]) [s⁻¹]	Km (purified protein [2]) [mM]	kcat (purified protein [2]) [s⁻¹]
B1	0.337 ± 0.05	10.296 ± 0.0167	6.88 ± 0.41	2.4847 ± 0.0035
B2	1.05 ± 0.1	31.321 ± 0.0383	8.71 ± 0.2	8.8435 ± 0.0687
B3	0.812 ± 0.01	39.0852 ± 0.0667	5.14 ± 0.3	11.26 ± 0.055
B4	7.607 ± 0.2	25.1237 ± 0.0167	8.28 ± 0.4	12.193 ± 0.005

Reference: paper PMC9728165, “Improving Catalytic Efficiency and Changing Substrate Spectrum for Asymmetric Biocatalytic Reductive Amination” (Journal of Microbiology and Biotechnology, 2019)
